The source of these data is patent US6576442 (SUGEN, dated 2003).

This assay has as its target T1, PYK-NN (PYK2 aa 2-285) fused to the LexA DNA binding domain (UniProt P0A7C2 1-202; Q14289 2-285).
T1 construct: Yeast two-hybrid bait
Nature of the assay: yeast two-hybrid with heterologous baits. The method, then: The yeast strain L40 containing the reporter genes HIS3 and β-gal under control of upstream LexA-binding site, was used as a host for the two-hybrid screening. […] Yeast strain that express the LexA-PYKN fusion protein was transfected with human brain cDNA library (Clontech #HL404AB) fused to GAL4 transcriptional activation domain. Transformants were plated on agar selection medium lacking Uracil (Ura-), Tryptophane (Trp-), Leucine (Leu-) and Histidine (His-). Resulting colonies were isolated and retested for growth on -Ura-Trp-Leu-His plates and for β-galactosidase activity. Plasmid DNA was purified from colonies that were His+, β-gal+ and used for retransformation of yeast strains expressing heterologous baits to determine the specificity of the interaction.
The yeast two-hybrid system was used to identify proteins that interact with the amino-terminal domain of PYK2. The N-terminal domain of PYK2 was fused to the LexA DNA binding domain and screened a human brain cDNA library. […] The specificity of the interaction was further determined by transformation of this clone into a yeast strain expressing heterologous baits. An interaction was detected in yeast strain expressing either the PYK-N terminal domain, or a shorter version of PYK-N that was missing 48 amino acids from its C-terminal end.

T1 sequence (P0A7C2 other isoform, or with tags, fused parts or gaps limits assumed): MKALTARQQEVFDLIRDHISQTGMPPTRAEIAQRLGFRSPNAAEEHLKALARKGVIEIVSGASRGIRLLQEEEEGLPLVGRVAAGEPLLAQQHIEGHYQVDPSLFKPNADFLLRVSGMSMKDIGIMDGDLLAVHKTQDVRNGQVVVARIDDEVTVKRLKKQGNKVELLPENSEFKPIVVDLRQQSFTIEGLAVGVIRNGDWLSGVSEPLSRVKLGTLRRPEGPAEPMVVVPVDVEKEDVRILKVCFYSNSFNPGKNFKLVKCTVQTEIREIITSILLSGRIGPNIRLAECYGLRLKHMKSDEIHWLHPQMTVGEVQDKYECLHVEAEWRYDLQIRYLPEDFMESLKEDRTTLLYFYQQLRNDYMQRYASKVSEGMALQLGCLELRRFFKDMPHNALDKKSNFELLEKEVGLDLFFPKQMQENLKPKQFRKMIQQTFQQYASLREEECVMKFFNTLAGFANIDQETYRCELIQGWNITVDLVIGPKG

B1: original two hybrid clone containing amino acids 627-975 of hrdgB1, fused to the GAL4 transcriptional activation domain (other, not shown: large carriers)
chain: VKLRNVTANHRANDVIAAEDGPQVLVGRFMYGPLDMVALTGEKVDILVMAEPSSGRWVHLDTEITNSSGRITYNVPRPRRLGVGVYPVKMVVRGDQTCAMSYLTVLPRGMECVVFSIDGSFAASVSIMGSDPKVRPGAVDVVRHWQDLGYMILYITGRPDMQKQRVVSWLSQHNFPQGMIFFSDGLVHDPLRQKAIFLRNLMQECFIKISAAYGSTKDISVYSVLGLPASQIFIVGRPTKKYQTQCQFLSEGYAAHLAVLEASHRSRPKKNNSRMILRKGSFGLHAQPEFLRKRNHLRRTMSVQQPDPPAANPKPERAQSQPESDKDHERPLPALSWARGPPKFESVP
notes: The printed end may count the stop codon; also called GAL10-rdgB1
As for B1, the binding result is “no binding”.
